Drawing on article PMC3052529, this text covers stoichiometry N and IC50 for 2 substances.

pIC50: −log10 of the molar value. Values joined by “and” are separate entries in the source; they are usually repeats but may differ in a detail not shown here. Identical values can stand only once. Like-named read-outs stand apart in the source and are kept apart here.

For experiment [1], the target named is HCV core106 (first N-terminal 106 residues of HCV core protein) (hepatitis C virus (strain not stated)). Briefly: cross-linking.
The target of experiment [2] is Flag-core106 (hepatitis C virus (strain not stated)). Kind of experiment: AlphaScreen or HTRF.
Experiment [3] addresses Flag-core169 (hepatitis C virus H77 genotype 1a). Briefly: AlphaScreen or HTRF.
Experiment [4] addresses Flag-core106 (hepatitis C virus (strain not stated)). Briefly: AlphaScreen or HTRF. The source holds these as a separate data set.
Experiment [5] concerns the target HCV core169 (first 169 residues of HCV core protein, domains D1+D2) (hepatitis C virus H77 genotype 1a). Briefly: cross-linking.

Turning to “HCV core106 (first N-terminal 106 residues of HCV core protein) (domain or fragment)”, in experiment [1], the stoichiometry N stood at 2. Moreover, the negative logarithm of the IC50 (pIC50) in experiment [2] is 6.46; in experiment [3], 6.06; in experiment [4], 6.66.
As for “HCV core169 (first 169 residues of HCV core protein, domains D1+D2) (domain or fragment)”, the stoichiometry N in experiment [5] was 2 and 3.
